Target: GST fused to Las17 fragment P8-12 (GST-P8-12) (S. cerevisiae) (UniProt Q12446)
Assay: pull-down

Chain of UniProt Q12446 (Q12446 300-404): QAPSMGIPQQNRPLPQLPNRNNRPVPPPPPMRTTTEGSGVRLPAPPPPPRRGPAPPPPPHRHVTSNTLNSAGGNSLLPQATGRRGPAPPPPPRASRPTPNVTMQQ

Work on “hexahistidine-tagged Sla1 fragment spanning the SH3 domains 1 and 2 (His-Sla1-SH3-1-2) (domain or fragment)” yielded a Kd of 56 nM.
